Values quoted from earlier work, collected in publication PMC12759081.
pKd: −log10 of the molar value.

Biological target: PDS5B (Homo sapiens) (UniProt Q9NTI5)
Experiment: ITC

Sequence of PDS5B (Homo sapiens) (Q9NTI5 whole entry): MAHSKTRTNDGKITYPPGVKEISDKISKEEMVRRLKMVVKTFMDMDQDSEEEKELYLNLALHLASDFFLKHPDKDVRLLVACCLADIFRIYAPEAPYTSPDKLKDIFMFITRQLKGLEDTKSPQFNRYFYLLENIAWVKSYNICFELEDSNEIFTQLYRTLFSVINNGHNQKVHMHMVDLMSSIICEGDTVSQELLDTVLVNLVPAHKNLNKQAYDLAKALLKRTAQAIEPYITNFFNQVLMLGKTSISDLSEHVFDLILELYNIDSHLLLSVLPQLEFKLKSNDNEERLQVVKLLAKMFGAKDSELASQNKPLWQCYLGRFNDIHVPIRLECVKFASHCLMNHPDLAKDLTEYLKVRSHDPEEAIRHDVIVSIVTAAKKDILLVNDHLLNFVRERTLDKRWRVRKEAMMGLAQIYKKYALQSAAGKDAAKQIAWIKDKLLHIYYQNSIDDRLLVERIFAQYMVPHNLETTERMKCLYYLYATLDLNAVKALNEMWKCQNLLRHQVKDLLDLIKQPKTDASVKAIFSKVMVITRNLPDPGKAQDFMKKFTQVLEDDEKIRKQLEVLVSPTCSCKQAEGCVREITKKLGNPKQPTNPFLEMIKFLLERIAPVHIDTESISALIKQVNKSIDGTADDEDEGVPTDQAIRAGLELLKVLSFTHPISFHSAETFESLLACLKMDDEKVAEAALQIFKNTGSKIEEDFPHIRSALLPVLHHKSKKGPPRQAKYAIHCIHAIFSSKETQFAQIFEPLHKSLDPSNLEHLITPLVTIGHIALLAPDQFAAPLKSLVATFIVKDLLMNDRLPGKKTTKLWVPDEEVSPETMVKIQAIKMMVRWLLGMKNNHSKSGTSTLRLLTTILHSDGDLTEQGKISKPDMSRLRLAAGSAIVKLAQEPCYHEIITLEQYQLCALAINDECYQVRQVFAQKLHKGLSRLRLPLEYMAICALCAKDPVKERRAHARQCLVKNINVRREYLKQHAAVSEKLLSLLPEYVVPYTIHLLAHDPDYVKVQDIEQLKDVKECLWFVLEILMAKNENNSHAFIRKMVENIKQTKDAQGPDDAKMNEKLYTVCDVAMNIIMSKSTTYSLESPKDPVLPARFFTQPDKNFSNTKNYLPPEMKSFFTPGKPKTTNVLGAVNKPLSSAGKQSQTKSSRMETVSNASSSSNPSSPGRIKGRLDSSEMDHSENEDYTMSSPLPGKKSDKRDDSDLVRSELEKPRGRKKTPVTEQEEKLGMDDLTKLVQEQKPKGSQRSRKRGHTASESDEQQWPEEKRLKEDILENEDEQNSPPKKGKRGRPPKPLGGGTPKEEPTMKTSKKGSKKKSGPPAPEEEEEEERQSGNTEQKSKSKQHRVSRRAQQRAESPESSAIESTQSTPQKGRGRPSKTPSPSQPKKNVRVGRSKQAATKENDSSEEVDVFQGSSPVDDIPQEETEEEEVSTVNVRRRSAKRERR
Sequence of Wapl (Q7Z5K2 whole entry): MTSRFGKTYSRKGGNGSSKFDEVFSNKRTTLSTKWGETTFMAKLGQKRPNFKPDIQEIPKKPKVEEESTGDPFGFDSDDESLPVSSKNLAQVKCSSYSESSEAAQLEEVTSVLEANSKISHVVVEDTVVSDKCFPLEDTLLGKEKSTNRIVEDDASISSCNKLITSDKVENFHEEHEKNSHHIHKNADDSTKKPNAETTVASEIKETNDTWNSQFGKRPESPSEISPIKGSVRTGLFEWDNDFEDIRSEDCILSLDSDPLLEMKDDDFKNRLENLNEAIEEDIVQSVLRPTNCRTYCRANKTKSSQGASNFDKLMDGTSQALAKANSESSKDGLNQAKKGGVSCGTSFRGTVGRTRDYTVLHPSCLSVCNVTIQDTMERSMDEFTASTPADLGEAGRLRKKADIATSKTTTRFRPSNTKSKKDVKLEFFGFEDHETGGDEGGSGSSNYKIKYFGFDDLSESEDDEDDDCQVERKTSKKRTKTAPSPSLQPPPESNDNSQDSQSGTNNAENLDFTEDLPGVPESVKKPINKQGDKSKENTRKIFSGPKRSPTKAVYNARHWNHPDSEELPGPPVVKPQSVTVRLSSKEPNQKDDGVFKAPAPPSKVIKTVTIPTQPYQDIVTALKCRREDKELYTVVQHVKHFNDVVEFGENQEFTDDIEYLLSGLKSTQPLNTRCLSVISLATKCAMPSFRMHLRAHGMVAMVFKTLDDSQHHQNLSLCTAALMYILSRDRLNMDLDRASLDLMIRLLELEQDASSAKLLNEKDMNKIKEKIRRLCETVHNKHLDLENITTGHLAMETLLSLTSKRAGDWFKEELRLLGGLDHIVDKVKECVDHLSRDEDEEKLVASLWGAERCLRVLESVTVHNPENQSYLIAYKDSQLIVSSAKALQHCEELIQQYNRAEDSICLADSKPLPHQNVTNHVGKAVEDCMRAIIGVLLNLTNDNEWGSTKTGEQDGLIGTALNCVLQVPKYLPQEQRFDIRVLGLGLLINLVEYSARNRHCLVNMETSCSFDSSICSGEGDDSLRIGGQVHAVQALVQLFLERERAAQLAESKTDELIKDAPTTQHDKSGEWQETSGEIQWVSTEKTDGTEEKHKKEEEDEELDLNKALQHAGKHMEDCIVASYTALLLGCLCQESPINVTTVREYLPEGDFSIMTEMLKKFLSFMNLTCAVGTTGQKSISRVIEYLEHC

- pKd: 5.22
Substance: Wapl (from UniProt Q7Z5K2)
